Data reported in US20250051465A1 (published 2025).

T1: human LEPR extracellular domain expressed with a C-terminal mouse IgG2a Fc tag (hLEPR.mFc) (human)
T1 construct: also called dimeric human LEPR
T1 chain: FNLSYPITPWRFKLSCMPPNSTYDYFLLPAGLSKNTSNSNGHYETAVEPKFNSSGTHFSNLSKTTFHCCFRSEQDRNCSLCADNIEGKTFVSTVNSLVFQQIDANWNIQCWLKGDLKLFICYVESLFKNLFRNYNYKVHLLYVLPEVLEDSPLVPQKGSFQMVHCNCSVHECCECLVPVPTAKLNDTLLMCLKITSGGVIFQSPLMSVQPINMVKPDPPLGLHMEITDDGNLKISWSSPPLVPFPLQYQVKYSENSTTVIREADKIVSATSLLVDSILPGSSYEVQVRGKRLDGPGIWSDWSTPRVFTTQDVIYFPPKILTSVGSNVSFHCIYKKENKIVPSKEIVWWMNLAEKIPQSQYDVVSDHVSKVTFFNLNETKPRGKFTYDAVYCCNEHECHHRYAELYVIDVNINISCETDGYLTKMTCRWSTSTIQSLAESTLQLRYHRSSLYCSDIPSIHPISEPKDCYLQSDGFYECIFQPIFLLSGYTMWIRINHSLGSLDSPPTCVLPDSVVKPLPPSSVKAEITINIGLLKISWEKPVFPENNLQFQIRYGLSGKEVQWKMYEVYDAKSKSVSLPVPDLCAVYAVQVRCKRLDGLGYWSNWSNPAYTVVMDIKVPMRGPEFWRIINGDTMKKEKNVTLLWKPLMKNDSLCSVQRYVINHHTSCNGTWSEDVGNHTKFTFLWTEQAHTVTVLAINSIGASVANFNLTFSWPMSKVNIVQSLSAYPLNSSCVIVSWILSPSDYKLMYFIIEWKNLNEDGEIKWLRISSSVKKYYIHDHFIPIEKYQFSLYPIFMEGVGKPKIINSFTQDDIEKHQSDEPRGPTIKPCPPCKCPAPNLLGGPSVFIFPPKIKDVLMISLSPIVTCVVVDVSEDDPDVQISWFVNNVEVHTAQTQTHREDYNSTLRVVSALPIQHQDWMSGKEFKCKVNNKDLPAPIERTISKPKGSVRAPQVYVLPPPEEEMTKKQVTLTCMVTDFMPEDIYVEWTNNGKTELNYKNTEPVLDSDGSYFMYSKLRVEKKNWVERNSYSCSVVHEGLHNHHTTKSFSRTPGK

T2: full length human LEPR on cells (human, UniProt P48357 22-1165)
T2 sequence: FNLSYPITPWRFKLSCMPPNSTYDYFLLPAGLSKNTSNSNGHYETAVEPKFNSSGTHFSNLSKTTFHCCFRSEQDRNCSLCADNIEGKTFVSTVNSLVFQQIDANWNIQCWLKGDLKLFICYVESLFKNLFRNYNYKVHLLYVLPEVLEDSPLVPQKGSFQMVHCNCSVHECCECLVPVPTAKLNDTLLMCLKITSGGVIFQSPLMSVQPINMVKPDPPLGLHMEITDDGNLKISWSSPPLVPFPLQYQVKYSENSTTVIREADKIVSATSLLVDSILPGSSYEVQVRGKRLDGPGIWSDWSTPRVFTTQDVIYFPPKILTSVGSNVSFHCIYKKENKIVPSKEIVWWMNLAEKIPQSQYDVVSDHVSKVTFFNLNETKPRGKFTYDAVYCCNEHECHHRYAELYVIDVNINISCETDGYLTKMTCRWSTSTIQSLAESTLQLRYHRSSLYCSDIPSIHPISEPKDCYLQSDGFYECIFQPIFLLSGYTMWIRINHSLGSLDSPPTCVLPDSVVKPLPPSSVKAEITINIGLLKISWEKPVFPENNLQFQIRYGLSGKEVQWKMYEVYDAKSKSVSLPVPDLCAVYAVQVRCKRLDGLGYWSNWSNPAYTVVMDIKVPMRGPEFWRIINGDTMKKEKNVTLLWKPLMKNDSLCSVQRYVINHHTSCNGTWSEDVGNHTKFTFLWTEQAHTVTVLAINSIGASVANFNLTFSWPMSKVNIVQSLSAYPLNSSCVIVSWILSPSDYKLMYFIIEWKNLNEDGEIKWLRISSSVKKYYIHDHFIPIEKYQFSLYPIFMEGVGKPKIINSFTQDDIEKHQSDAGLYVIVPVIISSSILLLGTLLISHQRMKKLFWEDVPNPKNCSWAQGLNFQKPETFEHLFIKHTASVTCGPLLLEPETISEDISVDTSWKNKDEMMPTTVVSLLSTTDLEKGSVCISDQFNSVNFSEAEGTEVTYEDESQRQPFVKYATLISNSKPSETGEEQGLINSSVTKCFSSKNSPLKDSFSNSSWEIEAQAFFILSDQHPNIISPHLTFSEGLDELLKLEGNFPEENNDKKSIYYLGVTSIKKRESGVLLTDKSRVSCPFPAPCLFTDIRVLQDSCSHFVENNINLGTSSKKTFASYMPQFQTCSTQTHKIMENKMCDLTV

B1: H4H17319P2 (antibody, human IgG4, V domains shown)
VH: QVQLVESGGSVVQPGRSLRLSCAASGFTFSTYAMYWVRQTPGKGLEWVAVLYSDGSNKYYIDSVKGRFTISRDTSTNTLYLQMSSLRADDSALYYCARLNWDYWYFDLWGRGTLVTVSS
VL: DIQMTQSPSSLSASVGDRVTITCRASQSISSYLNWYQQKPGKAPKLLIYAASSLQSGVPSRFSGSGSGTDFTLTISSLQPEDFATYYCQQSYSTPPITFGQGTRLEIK
notes: Fully human antibody with human IgG4 Fc (H4H prefix)
B2: H4H18446P2 (antibody, human IgG4, V domains shown)
VH: EVQLVESGGGLVQPGGSLRLSCAASGFTFSNYGMTWVRQAPGKGLEWVSAITGGGGSTYYSNSVKGRFTISRDNSKNTVYLRMNSVRAEDTAVYYCAKYKWNFVDDWGQGTTVTVSS
VL: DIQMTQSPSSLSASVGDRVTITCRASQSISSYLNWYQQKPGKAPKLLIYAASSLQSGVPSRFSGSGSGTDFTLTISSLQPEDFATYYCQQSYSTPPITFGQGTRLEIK
notes: as for B1

Legend:
[1] = target: T3, Macaca fascicularis LEPR extracellular domain expressed with a C-terminal myc-myc-hexahistidine tag … (Macaca fascicularis, UniProt Q9MYL0 22-837 (rhesus entry)); assay: SPR, captured mAb, 25C
T3 construct: also called mfLEP.MMH
Method: (§1) Equilibrium dissociation constants (KD values) for LEPR binding to purified anti-LEPR monoclonal antibodies were determined using a real-time surface plasmon resonance biosensor using a Biacore 4000 instrument. All binding studies were performed in 10 mM HEPES, 150 mM NaCl, 3 mM EDTA, and 0.05% v/v Surfactant Tween-20, pH 7.4 (HBS-ET) running buffer at 25° C. and 37° C. The Biacore sensor surface was first derivatized by amine coupling with a monoclonal mouse anti-human Fc antibody (GE, #BR-1008-39) to capture anti-LEPR monoclonal antibodies. […] Kinetic association (kₐ) and dissociation (kd) rate constants were determined by fitting the real-time binding sensorgrams to a 1:1 binding model with mass transport limitation using Scrubber 2.0c curve-fitting software. Binding dissociation equilibrium constants (KD) and dissociative half-lives (t½) were calculated from the kinetic rate constants as: […]

[2] = target: T1, human LEPR extracellular domain …; assay: SPR, captured mAb, 25C
Method: as §1

[3] = target: T4, human LEPR extracellular domain expressed with a C-terminal myc-myc-hexahistidine tag (hLEPR.mmh) (human, UniProt P48357 22-839); assay: SPR, captured mAb, 25C
T4 construct: also called human LEPR-MMH; monomeric human LEPR
Method: as §1

[4] = target: T2, full length human LEPR on cells; assay: cell-based or functional assay

Binder | 100 nM mfLEP.MMH Bound (RU) [1] [RU] | Kd [1] [nM] | koff [1] [s⁻¹] | kon [1] [M⁻¹ s⁻¹] | t½ [1] [min] | 100 nM hLEPR-mFc Bound (RU) [2] [RU] | Kd [2] [nM] | koff [2] [s⁻¹] | kon [2] [M⁻¹ s⁻¹] | t½ [2] [min] | 100 nM hLEPR-MMH Bound (RU) [3] [RU] | Kd [3] [nM] | koff [3] [s⁻¹] | kon [3] [M⁻¹ s⁻¹] | t½ [3] [min] | % activation, with 200 pM human Leptin [4] [%] | % activation, without human Leptin [4] [%] | EC50, STAT3-Luc reporter, with 200 pM human Leptin [4] [M] | EC50, STAT3-Luc reporter, without human Leptin [4] [nM]
B1 | 83 | 11.6 | 0.000463 | 40000 | 25 | 69 | 3.45 | 0.000164 | 47700 | 70 | 36 | 20.3 | 0.000529 | 26100 | 22 | 76 | 68 | 1.91e-10 | 0.187
B2 | 23 | 58.3 | 0.00112 | 19300 | 10 | 20 | 6.48 | 0.000208 | 32000 | 56 | 16 | 52.5 | 0.000951 | 18100 | 12 | 68 | 6 | 3.42e-11 | 0.373
